Test results as given in the DeepSol protein solubility set.

Assay: soluble on expression in E. coli; label from the status in PepcDB or PDB records

Row | Sequence | soluble on expression in E. coli
1 | MLEFEQGFNHLATLKVIGVGGGGNNAVNRMIDHGMNNVEFIAINTDGQALNLSKAESKIQIGEKLTRGLGAGANPEIGKKAAEESREQIEDAIQGADMVFVTSGMGGGTGTGAAPVVAKIAKEMGALTVGVVTRPFSFEGRKRQTQAAAGVEAMKAAVDTLIVIPNDRLLDIVDKSTPMMEAFKEADNVLRQGVQGISDLIAVSGEVNLDFADVKTIMSNQGSALMGIGVSSGENRAVEAAKKAISSPLLETSIVGAQGVLMNITGGESLSLFEAQEAADIVQDAADEDVNMIFGTVINPELQDEIVVTVIATGFDDKPTSHGRKSGSTGFGTSVNTSSNATSKDESFTSNSSNAQATDSVSERTHTTKEDDIPSFIRNREERRSRRTRR | not soluble
2 | KAELKMLEAIEEDLNTRFADVDRKQLRLGAAGTFQKQEDADQWYKMVKDTFENEIDDIYYDSLSFSIGCHVGPNAIGIGISVVTRDEK | not soluble
3 | MAHHHHHHMADNITNDKRDIFKIHKWSAVAAWSWDISVDNCAICRNHIMDLCIECQAKTTDHENDKDKKIDKEGCTVAWGVCNHAFHLHCISRWIKARQVCPLDNTTWEFQKATD | soluble
4 | MSLDPEDVYDGGYGSKHSPVQLRIGNGGAGQSGLVKELADAFIKSKVDSGSAPFKVAWYKSDTTVTINYLKDGIVDVGITYSPVAERISIKHGISESPSYYAFRDHFMLIGPPSNPAKLSGDSDIADMFSKMHDAAEAGNTKPPVRFLSRYDKSATNIKEAELWLSIGQVPWATAYSTWYHQYITFPIQALTAAILLREYTITDYGTYLSIPRGLRDQMVIYKKGTNDADDPLLNPAHLLVGARAKNAEMAKEFAKWLVSKEGGQKVIEGFKKDGQQLYSPAPYRHEGHHHHHH | soluble
5 | MGMIVFVRFNSSYGFPVEVDSDTSILQLKEVVAKRQGVPADQLRVIFAGKELPNHLTVQNCDLEQQSIVHIVQRPRRR | soluble
6 | PIDLITVGSLIELQDSQNPFQYWIVSVIENVGGRLRLRYVGLEDTESYDQWLFYLDYRLRPVGWCQENKYRMDPPSEIYPLKMASEWKCTLEKSLIDAAKFPLPMEVFKDHADL | soluble
7 | MGHHHHHHSHMARKLKGKIGSKGLKGALLRHKAKVKLVRNIESKQKHELRKKNSSANNKTVKRNQEFQKLNQGKVMPFEKDETLMLCGEGDFSFARSIVEQNYIESDNLIITSYDNSVNELKLKYPHTFEENYQYLKDLNIPIFFQIDVTKLVKSFKISKNNTWFKIINRLSDHRWGNKPLQNIVFNFPHNGKGIKDQERNIREHQDLIFNFFQNSLQLFNLINTKIQNDTLRYTQGYDLNEDTPQAKKLTAEGYGNIILSLFDGEPYDSWQIKLLAKKNGLTLSRSSKFQWENFP | soluble
8 | KVLKIPREKIIEKGFTDPREYFASIEVDGGRPPKPGEFRDILVETVREVMGVEVVEAGLSKEEKIIWDRYKEMLTSSRFKMRRSTRLFKASMPPGTRYGFAQIKYRKLVQASVAVDSEGIIRAAMITGDFQLIPADADEEIVKAILGFKHSQYGEAADRVRRLVDERGIMIIGASAEEFIKPV | soluble
9 | IPVDLTWDLEAIFSTDEEWEKEFNEVKGLIPSLVQFKGKLSQSAEILYAALQQQDEITERLGRLYTYAHMRYDQDTTNSFYQGLNDRAQTLASQVGQAASFVVPELMSIEKEKIDTFLNEHEPLTLYRHMLDELNKQRPHVLSEAEESILAQASEVTSAPSNTFGMLNNADMTFPTIVNENGEEVEVTHGRYL | soluble
10 | MLQGDITMRYNSLNSYLKEKFGCKIYKLALSGGLSCPNRDGTISTGGCIFCSNGGSGDFAADKMLSITEQIESAKNRVSAKIKNGKYIAYFQSFTNTYGDIDYLRSIFTEAINHPDIVALSIGTRPDCLPDEVLNLLGELNKIKPVWVELGLQTIHENTAKYINRGYTLDVFNTAVNNLNKINVDVIVHLIIGLPFESKEDILESVKYVSSMNISGIKLQLLHVLKNTPLEKEYSLNKFEVLSMEEYVNIIAECLRYIPKSIVIHRLTGDGPKSILVAPLWSGNKKAVLNYMNKRFNELNVIQGSLCS | not soluble
11 | MHHHHHHSSGRENLYFQGSSESVRVVVRCRPMNGKEKAASYDKVVDVDVKLGQVSVKNPKGTAHEMPKTFTFDAVYDWNAKQFELYDETFRPLVDSVLQGFNGTIFAYGQTGTGKTYTMEGIRGDPEKRGVIPNSFDHIFTHISRSQNQQYLVRASYLEIYQEEIRDLLSKDQTKRLELKERPDTGVYVKDLSSFVTKSVKEIEHVMNVGNQNRSVGATNMNEHSSRSHAIFVITIECSEVGLDGENHIRVGKLNLVDLAGSERQAKTGAQGERLKEATKINLSLSALGNVISALVDGKSTHIPYRDSKLTRLLQDSLGGNAKTVMVANVGPASYNVEETLTTLRYANRAKNIKNKPRVNEDPKDALLREFQ | soluble
12 | MKKYQQLFKQIQETIQNETYAVGDFLPSEHDLMEQYQVSRDTVRKALSLLQEEGLIKKIRGQGSQVVKEETVNFPVSNLTSYQELVKELGLRSKTNVVSLDKIIIDKKSSLITGFPEFRMVWKVVRQRVVDDLVSVLDTDYLDMELIPNLTRQIAEQSIYSYIENGLKLLIDYAQKEITIDHSSDRDKILMDIGKDPYVVSIKSKVYLQDGRQFQFTESRHKLEKFRFVDFAKRKK | not soluble
13 | MSKSTAEIRQAFLDFFHSKGHQVVASSSLVPHNDPTLLFTNAGMNQFKDVFLGLDKRNYSRATTSQRCVRAGGKHNDLENVGYTARHHTFFEMLGNFSFGDYFKHDAIQFAWELLTSEKWFALPKERLWVTVYESDDEAYEIWEKEVGIPRERIIRIGDNKGAPYASDNFWQMGDTGPCGPCTEIFYDHGDHIWGGPPGSPEEDGDRYIEIWNIVFMQFNRQADGTMEPLPKPSVDTGMGLERIAAVLQHVNSNYDIDLFRTLIQAVAKVTGATDLSNKSLRVIADHIRSCAFLIADGVMPSNENRGYVLRRIIRRAVRHGNMLGAKETFFYKLVGPLIDVMGSAGEDLKRQQAQVEQVLKTEEEQFARTLERGLALLDEELAKLSGDTLDGETAFRLYDTYGFPVDLTADVCRERNIKVDEAGFEAAMEEQRRRAREASGFGADYNAMIRVDSASEFKGYDHLELNGKVTALFVDGKAVDAINAGQEAVVVLDQTPFYAESGGQVGDKGELKGANFSFAVEDTQKYGQAIGHIGKLAAGSLKVGDAVQADIDEARRARIRLNHSATHLMHAALRQVLGTHVSQKGSLVNDKVLRFDFSHNEAMKPEEIRAVEDLVNAQIRRNLPIETNIMNLEAAKAKGAMALFGEKYDERVRVLSMGDFSTELCGGTHASRTGDIGLFRIISESGTAAGVRRIEAVTGEGAITTVHADSDRLSEVAHLLKGDSNNLADKVRSVLERTRQLEKELQQLKEQAAAQESANLSSKAIDVNGVKLLVSELSGVEPKMLRTMVDDLKNQLGSTIIVLATVAEGKVSLIAGVSKDVTDRVKAGELIGMVAQQVGGKGGGRPDMAQAGGTDAAALPAALASVKGWVSAKLQ | not soluble
14 | QGHVGDHDSHEVMQRLDALLPTLRERAQETEDLRRIPDDSMKALQETGFFRLLQPEQWGGYQADPVLFYSAVRKIASACGSTGWVSSIIGVHNWHLALFSQQAQEDVWGNDTDVRISSSYAPMGAGQVVDGGYTVNGAWAWSSGCDHASWAVLGGPVIKDGRPVDFVSFLIPREDYRIDDVWNVVGLRGTGSNTVVVEDVFVPTHRVLSFKAMSNLTAPGLERNTAPVYKMPWGTIHPTTISAPIVGMAYGAYDAHVEHQGKRVRAAFAGEKAKDDPFAKVRIAEASSDIDAAWRQLSGNVADEYALLVAGEEVPFELRLRARRDQVRATGRAISSIDKLFESSGATALANGTPLQRFWRDAHAGRVHAANDPERAYVMYGTGEFGLPITDTMV | soluble
15 | LDFATLPPEINSARMYSGAGSAPMLAAASAWHGLSAELRASALSYSSVLSTLTGEEWHGPASASMTAAAAPYVAWMSVTAVRAEQAGAQAEAAAAAYEAAFAATVPPPVIEANRAQLMALIATNVLGQNAPAIAATEAQYAEMWSQDAMAMYGYAGASAAATQLTPFTEPVQTTNASGLAAQSAAIAHATGASAGAQQTTLSQLIAAIPSVLQGLSSSTAATFASGPSGLLGIVGSGSSWLDKLWALLDPNSNFWNTIASSGLFLPSNTIAPFLGLLGGVAAADAAGDVLGEATSGGLGGALVAPLGSAGGLGGTVAAGLGNAATVGTLSVPPSWTAAAPLASPLGSALGGTPMVAPPPAVAAGMPGMPFGTMGGQGFGRAVPQYGFRPNFVARPPAAG | not soluble
